Article PMC2771690 (Molecular cell, 2009)

Target: T1, proliferating cell nuclear antigen (PCNA), yeast (yeast, UniProt P15873 1-258)
T1 sequence (looked up): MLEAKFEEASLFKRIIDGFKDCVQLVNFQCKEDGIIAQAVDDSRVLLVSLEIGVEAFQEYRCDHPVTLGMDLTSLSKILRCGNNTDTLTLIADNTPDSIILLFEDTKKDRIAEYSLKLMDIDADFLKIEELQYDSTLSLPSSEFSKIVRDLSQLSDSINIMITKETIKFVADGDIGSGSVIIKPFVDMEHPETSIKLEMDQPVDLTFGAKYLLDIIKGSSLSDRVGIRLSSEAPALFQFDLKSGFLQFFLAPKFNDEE
Assay: pull-down

B1: GST-PINIT (Siz1 aa 172-315 as a C-terminal fusion to GST), wild-type (domain or fragment, S. cerevisiae, UniProt Q04195 172-315, looked up)
chain: VPTIHFKESPFYKIQRLIPELVMNVEVTGGRGMCSAKFKLSKADYNLLSNPNSKHRLYLFSGMINPLGSRGNEPIQFPFPNELRCNNVQIKDNIRGFKSKPGTAKPADLTPHLKPYTQQNNVELIYAFTTKEYKLFGYIVEMIT
binding result: binds
